T1: human TREM2 (human, UniProt Q9NZC2 19-174, limits assumed)
T1 construct: also called triggering receptor expressed on myeloid cells 2
T1 sequence: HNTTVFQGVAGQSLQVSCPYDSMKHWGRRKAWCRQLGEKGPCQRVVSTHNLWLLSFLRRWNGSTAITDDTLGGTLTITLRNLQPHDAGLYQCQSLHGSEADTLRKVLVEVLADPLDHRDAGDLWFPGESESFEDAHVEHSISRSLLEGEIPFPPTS


How the values were obtained:
[1] = target: T1, human TREM2; test: 1st screen, 10 nM Ab
[2] = target: T1, human TREM2; test: 2nd screen, 2 nM
[3] = target: T1, human TREM2; test: 2nd screen, 10 nM
[4] = target: T1, human TREM2; test: 1st screen, 110 nM Ab
[5] = target: T1, human TREM2; test: 2nd screen, 100 nM

Binder | Binding Signal [1] | Binding Signal [2] | Binding Signal [3] | Binding Signal [4] | Binding Signal [5]
V1 (antibody, V domains shown, also called 6E7 variant V1) VH: EVQLVQSGAEVKKPGESLKISCKGSGYSFTSSWIAWVRQMPGKGLEWMGIIYPGDSDTRYSPSFQGQVTISADKSISTAYLQWSSLKASDTAMYFCARSRTFYYDSSDYFDYWGQGTLVTVSS VL: DIQMTQSPSSVSASVGDRVTITCRASQGISSWLAWYQQKPGKAPKLLIYAASSLTNGVPSRFSGSGSGTDFTLTISSLQPEDFATYFCQQADSYPRTFGQGTKLEIK | 1.68 fold over 6E7 parental antibody | 1.29 fold over 6E7 parental antibody | 1.92 fold over 6E7 parental antibody |  | 
V93 (antibody, V domains shown, also called 6E7 variant V93) VH: EVQLVQSGAEVKKPGESLKISCKGSGYSFTSYWIAWVRQMPGKGLEWMGIIYPGDSDTRYSPSFQGQVTISADKSISTAYLQWSSLKASDTAMYFCARQRTFYYDSSDYFDYWGQGTLVTVSS VL: DIQMTQSPSSVSASVGDRVTITCRASQGISGWLAWYQQKPGKAPKLLIYAASSLQNGVPSRFSGSGSGTDFTLTISSLQPEDFATYFCQQADSFPRTFGQGTKLEIK |  |  |  | 0.35 fold over 6E7 parental antibody | 1.05 fold over 6E7 parental antibody
V4 (antibody, V domains shown, also called 6E7 variant V4) VH: EVQLVQSGAEVKKPGESLKISCKGSGYSFGSYWIAWVRQMPGKGLEWMGIIYPGDSDTRVSPSFQGQVTISADKSISTAYLQWSSLKASDTAMYFCARSRTFYYDSSDYFDYWGQGTLVTVSS VL: DIQMTQSPSSVSASVGDRVTITCRASQGISSWLAWYQQKPGKAPKLLIYAASRLQNGVPSRFSGSGSGTDFTLTISSLQPEDFATYFCQQADSYPRTFGQGTKLEIK | 6 fold over 6E7 parental antibody | 5.88 fold over 6E7 parental antibody | 5.51 fold over 6E7 parental antibody |  | 
V90 (antibody, V domains shown, also called 6E7 variant V90; LV-206/HV-206) VH: EVQLVQSGAEVKKPGESLKISCKGSGYSFTSEWIAWVRQMPGKGLEWMGIIYPGDSDTRYSPSFQGQVTISADKSISTAYLQWSSLKASDTAMYFCARQRTFYYDSSDYFDYWGQGTLVTVSS VL: DIQMTQSPSSVSASVGDRVTITCRASQGISRWLAWYQQKPGKAPKLLIYAASSLQNGVPSRFSGSGSGTDFTLTISSLQPEDFATYFCQQADSFPRTFGQGTKLEIK |  |  |  | 0.33 fold over 6E7 parental antibody | 0.36 fold over 6E7 parental antibody
V13 (antibody, V domains shown, also called 6E7 variant V13) VH: EVQLVQSGAEVKKPGESLKISCKGSGYSFGSYWIAWVRQMPGKGLEWMGIIYPGDSDTRYSASFQGQVTISADKSISTAYLQWSSLKASDTAMYFCARGRTFYYDSSDYFDYWGQGTLVTVSS VL: DIQMTQSPSSVSASVGDRVTITCRASQGISSWLAWYQQKPGKAPKLLIYAASSLQGGVPSRFSGSGSGTDFTLTISSLQPEDFATYFCQQADSMPRTFGQGTKLEIK | 1.31 fold over 6E7 parental antibody | 1.15 fold over 6E7 parental antibody | 1.35 fold over 6E7 parental antibody |  | 
V80 (antibody, V domains shown, also called 6E7 variant V80) VH: EVQLVQSGAEVKKPGESLKISCKGSGYSFTSYWIAWVRQMPGKGLEWMGIIYPGDSDTRYSPSFQGQVTISADKSISTAYLQWSSLKASDTAMYFCARQRNFYYDSSDYFDYWGQGTLVTVSS VL: DIQMTQSPSSVSASVGDRVTITCRASQGISSWLAWYQQKPGKAPKLLIYAASSLQNGVPSRFSGSGSGTDFTLTISSLQPEDFATYFCQQADSFPRTFGQGTKLEIK |  |  |  | 0.59 fold over 6E7 parental antibody | 0.5 fold over 6E7 parental antibody
V78 (antibody, V domains shown, also called 6E7 variant V78) VH: EVQLVQSGAEVKKPGESLKISCKGSGYRFTSYWIAWVRQMPGKGLEWMGIIYPGDSDTRYSPSFQGQVTISADKSISTAYLQWSSLKASDTAMYFCARQRTFYYDSSDYFDYWGQGTLVTVSS VL: DIQMTQSPSSVSASVGDRVTITCRASQGISSWLAWYQQKPGKAPKLLIYAASSLQNGVPSRFSGSGSGTDFTLTISSLQPEDFATYFCQQADSFPRTFGQGTKLEIK |  |  |  | 0.86 fold over 6E7 parental antibody | 1.11 fold over 6E7 parental antibody
V81 (antibody, V domains shown, also called 6E7 variant V81) VH: EVQLVQSGAEVKKPGESLKISCKGSGYSFTSYWIAWVRQMPGKGLEWMGIIYPGDSDTRYSPSFQGQVTISADKSISTAYLQWSSLKASDTAMYFCARQRTFYYDSSDYFDYWGQGTLVTVSS VL: DIQMTQSPSSVSASVGDRVTITCRASQGISSLLAWYQQKPGKAPKLLIYAASSLQNGVPSRFSGSGSGTDFTLTISSLQPEDFATYFCQQADSFPRTFGQGTKLEIK |  |  |  | 0.17 fold over 6E7 parental antibody | 0.23 fold over 6E7 parental antibody
V5 (antibody, V domains shown, also called 6E7 variant V5) VH: EVQLVQSGAEVKKPGESLKISCKGSGYSFTSYWIAWVRQMPGKGLEWMGTIYPGDSDTRYSPSFQGQVTISADKSISTAYLQWSSLKASDTAMYFCARQRTFYYDSSDYFDYWGQGTLVTVSS VL: DIQMTQSPSSVSASVGDRVTITCRASQGISSWLAWYQQKPGKAPKLLIYAASSLQNGVPSRFSGSGSGTDFTLTISSLQPEDFATYFCQQADSHPRTFGQGTKLEIK | 2.73 fold over 6E7 parental antibody | 1.25 fold over 6E7 parental antibody | 2.84 fold over 6E7 parental antibody |  | 
V2 (antibody, V domains shown, also called 6E7 variant V2) VH: EVQLVQSGAEVKKPGESLKISCKGSGSSFTSYWIAWVRQMPGKGLEWMGIIYPGDGDTRYSPSFQGQVTISADKSISTAYLQWSSLKASDTAMYFCARSRTFYYDSSDYFDYWGQGTLVTVSS VL: DIQMTQSPSSVSASVGDRVTITCRASQGISSWLAWYQQKPGKAPKLLIYAASSRQNGVPSRFSGSGSGTDFTLTISSLQPEDFATYFCQQADRFPRTFGQGTKLEIK | 2.55 fold over 6E7 parental antibody | 2.23 fold over 6E7 parental antibody | 2.9 fold over 6E7 parental antibody |  | 
V79 (antibody, V domains shown, also called 6E7 variant V79) VH: EVQLVQSGAEVKKPGESLKISCKGSGYSFTSYWIAWVRQMPGKGLEWMGIIYPGDSDTNYSPSFQGQVTISADKSISTAYLQWSSLKASDTAMYFCARQRTFYYDSSDYFDYWGQGTLVTVSS VL: DIQMTQSPSSVSASVGDRVTITCRASQGISSWLAWYQQKPGKAPKLLIYAASSLQNGVPSRFSGSGSGTDFTLTISSLQPEDFATYFCQQADSFPRTFGQGTKLEIK |  |  |  | 0.7 fold over 6E7 parental antibody | 0.52 fold over 6E7 parental antibody
V94 (antibody, V domains shown, also called 6E7 variant V94) VH: EVQLVQSGAEVKKPGESLKISCKGSGYSFTSYWIAWVRQMPGKGLEWMGIIYPGDSDTRYSPSFQGQVTISADKSISTAYLQWSSLKASDTAMYFCARQRTFYYDSSDYFDYWGQGTLVTVSS VL: DIQMTQSPSSVSASVGDRVTITCRASQGISSWLAWYQQKPGKAPKLLIYAAASLQNGVPSRFSGSGSGTDFTLTISSLQPEDFATYFCQQADSFPRTFGQGTKLEIK |  |  |  | 0.31 fold over 6E7 parental antibody | 0.87 fold over 6E7 parental antibody
V82 (antibody, V domains shown, also called 6E7 variant V82) VH: EVQLVQSGAEVKKPGESLKISCKGSGYSFTSYWIAWVRQMPGKGLEWMGIIYPGDSDTRYSPSFQGQVTISADKSISTAYLQWSSLKASDTAMYFCARQRTFYYDSSDYFDYWGQGTLVTVSS VL: DIQMTQSPSSVSASVGDRVTITCRASQGISSWLAWYQQKPGKAPKLLIYAGSSLQNGVPSRFSGSGSGTDFTLTISSLQPEDFATYFCQQADSFPRTFGQGTKLEIK |  |  |  | 0.3 fold over 6E7 parental antibody | 0.79 fold over 6E7 parental antibody
V92 (antibody, V domains shown, also called 6E7 variant V92) VH: EVQLVQSGAEVKKPGESLKISCKGSGYSFTSYWIAWVRQMPGKGLEWMGIIYPGDSDTRYSPSFQGQVTISADKSISTAYLQWSSLKASDTAMYFCARQRTFHYDSSDYFDYWGQGTLVTVSS VL: DIQMTQSPSSVSASVGDRVTITCRASQGISSWLAWYQQKPGKAPKLLIYAASSLQNGVPSRFSGSGSGTDFTLTISSLQPEDFATYFCQQADSFPRTFGQGTKLEIK |  |  |  | 0.22 fold over 6E7 parental antibody | 0.65 fold over 6E7 parental antibody
V3 (antibody, V domains shown, also called 6E7 variant V3; LV-101/HV-101) VH: EVQLVQSGAEVKKPGESLKISCKGSGYSFASYWIAWVRQMPGKGLEWMGIIYPGDSDTRYSPSFQDQVTISADKSISTAYLQWSSLKASDTAMYFCARGRTFYYDSSDYFDYWGQGTLVTVSS VL: DIQMTQSPSSVSASVGDRVTITCRASQGISSWLAWYQQKPGKAPKLLIYAASSRQNGVPSRFSGSGSGTDFTLTISSLQPEDFATYFCQQADRFPRTFGQGTKLEIK | 1.97 fold over 6E7 parental antibody | 1.95 fold over 6E7 parental antibody | 2.24 fold over 6E7 parental antibody |  | 
V83 (antibody, V domains shown, also called 6E7 variant V83) VH: EVQLVQSGAEVKKPGESLKISCKGSGYSFTSYWIAWVRQMPGKGLEWMGIIYPGDSDTRYSPSFQGQVTISADKSISTAYLQWSSLKASDTAMYFCARQRTFYYDSSDYFDYWGQGTLVTVSS VL: DIQMTQSPSSVSASVGDRVTITCRASQGISSWLAWYQQKPGKAPKLLIYAASSLQNGVPSRFSGSGSGTDFTLTISSLQPEDFATYFCQQAVSFPRTFGQGTKLEIK |  |  |  | 0.2 fold over 6E7 parental antibody | 0.29 fold over 6E7 parental antibody
V91 (antibody, V domains shown, also called 6E7 variant V91) VH: EVQLVQSGAEVKKPGESLKISCKGSGYSFTSYWIAWVRQMPGKGLEWMGIIYPDDSDTRYSPSFQGQVTISADKSISTAYLQWSSLKASDTAMYFCARQRTFYYDSSDYFDYWGQGTLVTVSS VL: DIQMTQSPSSVSASVGDRVTITCRASQGISSWLAWYQQKPGKAPKLLIYAASSLQNGVPSRFSGSGSGTDFTLTISSLQPEDFATYFCQQADSFPRTFGQGTKLEIK |  |  |  | 0.25 fold over 6E7 parental antibody | 0.61 fold over 6E7 parental antibody
V12 (antibody, V domains shown, also called 6E7 variant V12) VH: EVQLVQSGAEVKKPGESLKISCKGSGYEFTSYWIAWVRQMPGKGLEWMGIIYPGDSDVRYSPSFQGQVTISADKSISTAYLQWSSLKASDTAMYFCARGRTFYYDSSDYFDYWGQGTLVTVSS VL: DIQMTQSPSSVSASVGDRVTITCRASQGISSWLAWYQQKPGKAPKLLIYAASSLQRGVPSRFSGSGSGTDFTLTISSLQPEDFATYFCQQADSFPRTFGQGTKLEIK |  |  | 2.58 fold over 6E7 parental antibody |  | 

From patent US20250326839A1 (VIGIL NEUROSCIENCE, published 2025)
